In PMC7746861, “Acetate Metabolism in Archaea: Characterization of an Acetate Transporter and of Enzymes Involved in Acetate Activation and Gluconeogenesis in Haloferax volcanii” (Frontiers in Microbiology, 2020):

B1: PPS (Haloferax volcanii DS2) (protein)
chain: MAVVWLDDVRADDLDLVGGKGASLGELTGAGLPVPPGFVVTASTYRAFIEDAGIDDELFAAVEVDHEDSEALQAAHETAHDLIMETPMPDDVREEILDAYRSVGEGDAFVAVRSSATAEDLPDASFAGQQETFLNVTEEDLLDRVKECWASLFSERAIYYRNRKGFPHDKVDIAVVVQQMVDAEKSGVMFTRHPSTGKKEIIIEAAWGLGEAVVSGTVSPDNYVVSRETGEVETATIADKKTMCVRDEESGETVMRDVPNGRRHERVLTDDEVSRLLELGELVEDHYEKPQDVEWAVYDGEVYMLQSRPITTIAEGDDGEETESEGDSSGSSRATATGDDVLIRGLGASPGIASGRARIVTKLDHLDQVAEGDIIVTEMTMPDMVPAMKRAAGIVTDEGGMTSHAAIVSRELGVPAVVGTGDGTKTLEDGEVVTIDGDKGTVREGEEPEEKQRQPVEEARPKTPVKPMTATEVKVNVSIPEAAERAAATGADGVGLLRIEHMVLTLGKTPGRFIEQNGERAYVDEIVSGVREAAEEFYPRPVRVRTLDAPTDEFRQLEGGENEPREHNPMLGYRGIRRGLDNPSVFRLELQAFRRLFDMGYDNLEVMFPLVNDAEDVLRAKEHMREAGIDPEKREWGVMIETPAAALCIEELADAGIDFASFGTNDLTQYTLAVDRNNEHVADIYDELHPAVLKLIGDTIETCREVGVKTSICGQAGSKPKMVQFLVDKGVSSISANIDAVRDVQHEVKRVEQRLLLDSVR
notes: full length, Ni-NTA purified, homologous expression in H. volcanii
B2: ACS7 (Haloferax volcanii DS2) (protein)
chain: MAQGDAELEARLAEQDEFEPTEEFVAQANVSDAGIYDEFEENWPDCWERAADLLDWDADYDEVLDDSNPPFYEWFTGGELNACYNCVDRHVENGDKNRVAIKWEGEHGETRTYTYQDLYREVNEFAAALRDLGVEEDDVVTLYMPMVPELPIAMLACARIGAPHNVVFAGFSAEALATRMNAADSRFLVTCDGYYRRGDPLDHLDKTNEGLDSVDHGVDATVVVDRLGDDGFDHDLKGNQHDWDDLLEAQSGERVAPVERDAEDMLFLMYTSGTTGQPKGVKHTTGGYLSYATWTSHAVLDIETEDTYWCSADIGWITGHSYIVYGPLALGSTTVMYEGTPDFPNRDRMWELVEKYAVDIFYTAPTAIRAFMKWGSKYPESRDLSSLRLLGTVGEPINPRAWKWYYEHIGNENCPVVDTWWQTETGGMMITTLPGVKNMKPGSAGPPLPGIDAQIVDTDGDEVEPGRAGYLTVNKPWPGMLRTLYDNDERYISEYWAEYSDTDSDDPDDWVYFPEDGAKVDEDGYITVLGRVDDVINVSGHRLGTMEIESAIVGVEGVAEAAVVGGNHEVKGEAVYAYVITEDGYEEGEDLRARIVEGVEDAIGPIARPEQVVFTPELPKTRSGKIMRRLLEDVANGAELGNTSTLRNPEIVGEIEAKVRAQSD
notes: full length, Ni-NTA purified (pTA963), homologous expression in H. volcanii H1209

Assays:
[1] = substrate: Nc1ncnc2c1ncn2[C@@H]1O[C@H](COP(=O)(O)OP(=O)(O)OP(=O)(O)O)[C@@H](O)[C@H]1O; assay: discontinuous PEP formation assay; format: biochemical, Haloferax volcanii; conditions: pyruvate, MgCl2, DTE, 2 M KCl, pH 8.0, 42°C
[2] = substrate: CC(=O)C(=O)O; assay: discontinuous PEP formation assay; format: biochemical, Haloferax volcanii; conditions: ATP, MgCl2, DTE, 2 M KCl, pH 8.0, 42°C
purified protein [3] = substrate: CC(=O)O; assay: purified protein; conditions: acetate activation, ATP, CoA, MgCl2, 1 M KCl, pH 7.0, 42°C, pH 7.0
purified protein [4] = substrate: CC(C)(COP(=O)(O)OP(=O)(O)OC[C@H]1O[C@@H](n2cnc3c(N)ncnc32)[C@H](O)[C@@H]1OP(=O)(O)O)[C@@H](O)C(=O)NCCC(=O)NCCS; assay: purified protein; format: biochemical, Haloferax volcanii; conditions: acetate activation, ATP, CoA, MgCl2, 1 M KCl, pH 7.0, 42°C
purified protein [5] = substrate: CC(=O)SCCNC(=O)CCNC(=O)[C@H](O)C(C)(C)COP(=O)(O)OP(=O)(O)OC[C@H]1O[C@@H](n2cnc3c(N)ncnc32)[C@H](O)[C@@H]1OP(=O)(O)O; assay: purified protein; format: biochemical, Haloferax volcanii; conditions: acetate formation (reverse), AMP, PPi, MgCl2, 1 M KCl, pH 7.0, 42°C
purified protein [6] = substrate: Nc1ncnc2c1ncn2[C@@H]1O[C@H](COP(=O)(O)O)[C@@H](O)[C@H]1O; assay: purified protein; format: biochemical, Haloferax volcanii; conditions: acetate formation (reverse), acetyl-CoA, PPi, MgCl2, 1 M KCl, pH 7.0, 42°C
purified protein [7] = substrate: Nc1ncnc2c1ncn2[C@@H]1O[C@H](COP(=O)(O)OP(=O)(O)OP(=O)(O)O)[C@@H](O)[C@H]1O; assay: purified protein; format: biochemical, Haloferax volcanii; conditions: acetate activation, ATP, CoA, MgCl2, 1 M KCl, pH 7.0, 42°C

Protein	Km [1] [µM]	Km [2] [µM]	Km (purified protein [3]) [µM]	Vmax (purified protein [3]) [µmol/min/mg]	Km (purified protein [4]) [µM]	Km (purified protein [5]) [µM]	Vmax (purified protein [5]) [µmol/min/mg]	Km (purified protein [6]) [µM]	Km (purified protein [7]) [µM]
B1	360	270							
B2			840	26.1	230	150	6.2	90	590
